{"source": "the supplement of paper PMC9112550", "about": "“Optimization of the antimicrobial peptide Bac7 by deep mutational scanning” (BMC Biology, 2022);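 also: peptides expressed intracellularly from a pBAD plasmid library in pooled LB shake-flask culture, induced with 0.3% L-arabinose, DNA abundance read by NGS, three biological replicates, DESeq2 with apeglm shrinkage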"}
{"tested_on": "Escherichia coli TOP10", "assay": "shrunken log2 fold change of peptide-encoding DNA abundance (4.5 h post-induction vs induction); higher = less antimicrobial activity (less host growth inhibition)", "conditions": "time post-induction: 4.5 h; library: site-saturation at positions 5, 18, 19, 20"}
{"sequence": "RRIRCRPPRLPRPRPRPQYFPRP", "shrunken log2 fold change": -0.252}
{"sequence": "RRIRQRPPRLPRPRPRPMAHPRP", "shrunken log2 fold change": 0.00446}
{"sequence": "RRIRARPPRLPRPRPRPYAVPRP", "shrunken log2 fold change": -0.0829}
{"sequence": "RRIRYRPPRLPRPRPRPRAKPRP", "shrunken log2 fold change": 0.404}
{"sequence": "RRIRQRPPRLPRPRPRPSRSPRP", "shrunken log2 fold change": -0.117}
{"sequence": "RRIRARPPRLPRPRPRPTFDPRP", "shrunken log2 fold change": 0.399}
{"sequence": "RRIRRRPPRLPRPRPRPCFKPRP", "shrunken log2 fold change": -0.236}
{"sequence": "RRIRCRPPRLPRPRPRPSHNPRP", "shrunken log2 fold change": -0.628}
{"sequence": "RRIRNRPPRLPRPRPRPEGIPRP", "shrunken log2 fold change": 0.0204}
{"sequence": "RRIRNRPPRLPRPRPRPAYSPRP", "shrunken log2 fold change": -0.189}
{"sequence": "RRIRYRPPRLPRPRPRPNPVPRP", "shrunken log2 fold change": 0.000723}
{"sequence": "RRIRHRPPRLPRPRPRPWWQPRP", "shrunken log2 fold change": 0.00354}
{"sequence": "RRIRQRPPRLPRPRPRPQATPRP", "shrunken log2 fold change": -0.00963}
{"sequence": "RRIRHRPPRLPRPRPRPHMFPRP", "shrunken log2 fold change": -0.358}
{"sequence": "RRIRTRPPRLPRPRPRPCFFPRP", "shrunken log2 fold change": -0.202}
{"sequence": "RRIRFRPPRLPRPRPRPKVCPRP", "shrunken log2 fold change": 0.0321}
{"sequence": "RRIRTRPPRLPRPRPRPVSGPRP", "shrunken log2 fold change": -0.0612}
{"sequence": "RRIRWRPPRLPRPRPRPDEFPRP", "shrunken log2 fold change": 0.196}
{"sequence": "RRIRPRPPRLPRPRPRPGDLPRP", "shrunken log2 fold change": 0.076}
{"sequence": "RRIRYRPPRLPRPRPRPCLEPRP", "shrunken log2 fold change": 0.139}
{"sequence": "RRIRMRPPRLPRPRPRPMICPRP", "shrunken log2 fold change": -0.0412}
{"sequence": "RRIRCRPPRLPRPRPRPLFHPRP", "shrunken log2 fold change": -0.429}
{"sequence": "RRIRQRPPRLPRPRPRPQYIPRP", "shrunken log2 fold change": -0.0838}
{"sequence": "RRIRYRPPRLPRPRPRPEYQPRP", "shrunken log2 fold change": -0.00141}
{"sequence": "RRIRHRPPRLPRPRPRPKNHPRP", "shrunken log2 fold change": -0.566}
{"sequence": "RRIRARPPRLPRPRPRPGNAPRP", "shrunken log2 fold change": 0.73}
{"sequence": "RRIRERPPRLPRPRPRPFFLPRP", "shrunken log2 fold change": -0.384}
{"sequence": "RRIRGRPPRLPRPRPRPDWAPRP", "shrunken log2 fold change": 1.22}
{"sequence": "RRIRTRPPRLPRPRPRPVCRPRP", "shrunken log2 fold change": 0.0309}
{"sequence": "RRIRPRPPRLPRPRPRPAVWPRP", "shrunken log2 fold change": 0.602}
{"sequence": "RRIRMRPPRLPRPRPRPMYFPRP", "shrunken log2 fold change": 0.178}
{"sequence": "RRIRTRPPRLPRPRPRPSSCPRP", "shrunken log2 fold change": -0.222}
{"sequence": "RRIRTRPPRLPRPRPRPTVKPRP", "shrunken log2 fold change": 3.07}
{"sequence": "RRIRFRPPRLPRPRPRPFNCPRP", "shrunken log2 fold change": -0.113}
{"sequence": "RRIRKRPPRLPRPRPRPRFFPRP", "shrunken log2 fold change": 0.282}
{"sequence": "RRIRDRPPRLPRPRPRPTRGPRP", "shrunken log2 fold change": 0.67}
{"sequence": "RRIRYRPPRLPRPRPRPNGDPRP", "shrunken log2 fold change": -0.112}
{"sequence": "RRIRKRPPRLPRPRPRPNPQPRP", "shrunken log2 fold change": 0.463}
{"sequence": "RRIRERPPRLPRPRPRPFHIPRP", "shrunken log2 fold change": -0.133}
{"sequence": "RRIRERPPRLPRPRPRPEFLPRP", "shrunken log2 fold change": 0.26}
{"sequence": "RRIRTRPPRLPRPRPRPWAPPRP", "shrunken log2 fold change": 0.154}
{"sequence": "RRIRVRPPRLPRPRPRPITHPRP", "shrunken log2 fold change": -0.171}
{"sequence": "RRIRNRPPRLPRPRPRPSGNPRP", "shrunken log2 fold change": -0.315}
{"sequence": "RRIRIRPPRLPRPRPRPANAPRP", "shrunken log2 fold change": -0.319}
{"sequence": "RRIRLRPPRLPRPRPRPQTLPRP", "shrunken log2 fold change": -0.0114}
{"sequence": "RRIRVRPPRLPRPRPRPDSAPRP", "shrunken log2 fold change": 0.0792}
{"sequence": "RRIRFRPPRLPRPRPRPTQGPRP", "shrunken log2 fold change": 0.215}
{"sequence": "RRIRARPPRLPRPRPRPCIYPRP", "shrunken log2 fold change": -0.0979}
{"sequence": "RRIRGRPPRLPRPRPRPMQIPRP", "shrunken log2 fold change": 0.406}
{"sequence": "RRIRRRPPRLPRPRPRPQPKPRP", "shrunken log2 fold change": 0.761}
{"sequence": "RRIRIRPPRLPRPRPRPAWAPRP", "shrunken log2 fold change": 0.243}
{"sequence": "RRIRWRPPRLPRPRPRPVNNPRP", "shrunken log2 fold change": 0.018}
{"sequence": "RRIRDRPPRLPRPRPRPSPNPRP", "shrunken log2 fold change": 0.122}
{"sequence": "RRIRIRPPRLPRPRPRPLVYPRP", "shrunken log2 fold change": -0.592}
{"sequence": "RRIRLRPPRLPRPRPRPMDEPRP", "shrunken log2 fold change": -0.119}
{"sequence": "RRIRFRPPRLPRPRPRPKNSPRP", "shrunken log2 fold change": -0.533}
{"sequence": "RRIRMRPPRLPRPRPRPTQEPRP", "shrunken log2 fold change": 0.433}
{"sequence": "RRIRERPPRLPRPRPRPGVVPRP", "shrunken log2 fold change": -0.0414}
{"sequence": "RRIRIRPPRLPRPRPRPLAQPRP", "shrunken log2 fold change": -0.116}
{"sequence": "RRIRSRPPRLPRPRPRPIDPPRP", "shrunken log2 fold change": 0.017}
